Experimental data taken from US20090117124A1 (Pfizer, published 2009).

T1: human IgA (Sigma, Cat. No. I2636) (human)
T1 chain: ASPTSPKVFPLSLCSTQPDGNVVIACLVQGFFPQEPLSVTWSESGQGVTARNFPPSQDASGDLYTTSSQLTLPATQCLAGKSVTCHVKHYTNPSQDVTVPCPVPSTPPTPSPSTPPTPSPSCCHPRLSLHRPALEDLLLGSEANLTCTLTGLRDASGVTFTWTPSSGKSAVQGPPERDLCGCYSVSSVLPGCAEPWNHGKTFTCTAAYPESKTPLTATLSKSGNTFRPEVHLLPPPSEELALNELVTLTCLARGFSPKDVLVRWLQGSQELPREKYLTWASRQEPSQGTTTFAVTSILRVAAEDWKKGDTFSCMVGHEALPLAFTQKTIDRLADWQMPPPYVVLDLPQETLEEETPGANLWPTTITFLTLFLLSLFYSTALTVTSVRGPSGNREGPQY


Columns and labels:
[1] = target: T2, free IgE in human serum (healthy volunteers, in-house donors) (human, UniProt P01854-1 1-428); assay: serum free IgE depletion ELISA; DIN 0451 experiment 2
T2 construct: Kept apart from the bought myeloma IgE because it is native serum IgE of single donors; also called serum IgE
T2 sequence (P01854 other isoform, or with tags, fused parts or gaps): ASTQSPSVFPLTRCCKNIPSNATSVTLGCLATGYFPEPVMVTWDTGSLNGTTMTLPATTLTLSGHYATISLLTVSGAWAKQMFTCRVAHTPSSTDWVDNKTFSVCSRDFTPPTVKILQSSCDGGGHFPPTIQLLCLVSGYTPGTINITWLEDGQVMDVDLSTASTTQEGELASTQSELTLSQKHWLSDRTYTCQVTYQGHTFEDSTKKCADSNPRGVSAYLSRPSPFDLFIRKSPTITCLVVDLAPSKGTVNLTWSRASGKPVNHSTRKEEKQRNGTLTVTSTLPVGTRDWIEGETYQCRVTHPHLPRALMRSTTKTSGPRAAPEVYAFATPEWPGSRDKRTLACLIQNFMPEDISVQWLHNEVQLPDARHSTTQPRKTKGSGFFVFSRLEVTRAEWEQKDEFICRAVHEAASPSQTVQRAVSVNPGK
Procedure: (§1) The next day ELISA plates were washed 1× with 300 μL/well wash buffer (0.05% Tween-20, Sigma, Cat. No. P7949/TBS) then blocked with 150 μL/well 1% BSA (Sigma, Cat. No. A7030) in TBS for 1 hour at room temperature.

[2] = target: T2, free IgE in human serum (healthy …); assay: serum free IgE depletion ELISA; DIN 0155
Procedure: as §1

[3] = target: T1, human IgA (Sigma, Cat. No. I2636); assay: ELISA on coated immunoglobulin
Procedure: (§2) Wells were washed 3× with 150 μL wash buffer (0.05% Tween-20 (Sigma, Cat. No. P7949)/PBS) then blocked with 150 μL/well blocking buffer (2.5% BSA (Sigma, Cat. No. A7030)/PBS) for 2 hours at room temperature. Wells were washed 3× with 150 μL wash buffer/well. […] Antibodies were diluted in diluent buffer (PBS/1% BSA/0.05% Tween-20) and this was added to blank control wells (duplicate wells for each secondary antibody used). Antibodies were incubated for 2 hours at room temperature. Wells were washed 3× with 150 μL wash buffer/well. Binding of control antibodies to immunoglobulin was detected with anti-mouse IgG-HRP conjugate (Sigma, Cat. No. A4416) diluted 1:8000 in diluent buffer. 50 μL/well was added to control antibody and blank wells. Wells were incubated for 1 hour at room temperature, then washed 3× with 150 μL wash buffer/well. 50 μl OPD (Dako, Cat. No. […] Wells were incubated for 1 hour at room temperature then washed 3× with 150 μL wash buffer/well. Streptavidin-HRP (Amersham Bioscience, Cat. No. RPN 1231) diluted 1:2000 in diluent buffer was added to all wells and incubated for 45 minutes at room temperature. Wells were washed (3×150 μL wash buffer).

[4] = target: T3, human IgG3 (Biodesign, Cat. No. A50186H) (human); assay: ELISA on coated immunoglobulin
T3 construct: Bought immunoglobulin coated on the plate
Procedure: as §2

[5] = target: T4, human IgG1 (Biodesign, Cat. No. A50183H) (human); assay: ELISA on coated immunoglobulin
T4 construct: Bought immunoglobulin coated on the plate
Procedure: as §2

[6] = target: T5, human IgE (Human myeloma, azide free, Serotec, Cat. No. PHP008X2) (human, UniProt P01854 1-546); assay: ELISA on coated immunoglobulin
T5 construct: mature; Bought full length human myeloma IgE; in the BIAcore kinetics Serotec PHP008X2 or Europa Bioproducts CP1035K was used; also called full length human IgE; human immunoglobulin E
T5 sequence (P01854 whole entry): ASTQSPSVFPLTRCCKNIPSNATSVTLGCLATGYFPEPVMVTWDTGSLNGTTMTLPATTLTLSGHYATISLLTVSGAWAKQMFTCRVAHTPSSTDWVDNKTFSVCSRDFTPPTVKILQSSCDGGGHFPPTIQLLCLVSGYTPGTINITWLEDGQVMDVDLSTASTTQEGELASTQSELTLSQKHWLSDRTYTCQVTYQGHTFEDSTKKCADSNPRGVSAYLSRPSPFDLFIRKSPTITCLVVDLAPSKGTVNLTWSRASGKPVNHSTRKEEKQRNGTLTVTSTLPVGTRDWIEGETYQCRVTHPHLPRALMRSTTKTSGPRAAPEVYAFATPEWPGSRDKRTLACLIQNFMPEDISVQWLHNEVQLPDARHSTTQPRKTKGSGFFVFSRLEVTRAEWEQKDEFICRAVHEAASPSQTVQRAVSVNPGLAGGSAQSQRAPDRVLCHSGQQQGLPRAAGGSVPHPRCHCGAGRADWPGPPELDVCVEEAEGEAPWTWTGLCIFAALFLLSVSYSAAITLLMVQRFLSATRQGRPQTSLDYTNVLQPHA
Procedure: as §2

[7] = target: T2, free IgE in human serum (healthy …); assay: serum free IgE depletion ELISA; DIN 0011 experiment 2
Procedure: as §1

[8] = target: T6, cynomolgus monkey IgE (in cynomolgus serum, Harlan Sera-Lab Ltd) (cynomolgus monkey); assay: capture ELISA, Test 2, Cyno 8
T6 construct: Serum was the source of IgE; eight serum samples; also called cynomolgus IgE; Cyno 1 to Cyno 8 serum samples
Procedure: (§3) Wells were washed once with 150 μL/well wash buffer (0.05% Tween-20, Sigma, Cat. No. P7949/TBS) then blocked with 150 μL/well 1% BSA (Sigma, Cat. No. A7030) in TBS for 2 hours at room temperature. Wells were washed twice with 150 μL wash buffer. 50 μL human (in-house donors) or cynomolgus serum (Harlan Sera-Lab Ltd, Loughborough) was added from neat to at least 1:16 dilution in 1% BSA/0.05% Tween-20/TBS diluent buffer. […] Wells were incubated for 2 hours at 25° C. before washing (3×150 μL wash buffer). […] Wells were incubated for 1 hour at 25° C. then washed (3×150 μL wash buffer). Streptavidin-HRP (Amersham Bioscience, Cat. No. RPN 1231) diluted 1:1000 in diluent buffer was added to all wells and incubated for 45 minutes at room temperature. Wells were washed (3×150 […] wash buffer). 50 μL OPD (Dako, Cat. No. S2045) was added to all wells and the color allowed to develop for 10 minutes before stopping the reaction with 50 μl 0.6M H₂SO₄ and the absorbance measured at 490 nm.

[9] = target: T2, free IgE in human serum (healthy …); assay: serum free IgE depletion ELISA; DIN 0011 experiment 1
Procedure: as §1

[10] = target: T6, cynomolgus monkey IgE (in cynomolgus …); assay: capture ELISA, Test 2, Cyno 2
Procedure: as §3

[11] = target: T6, cynomolgus monkey IgE (in cynomolgus …); assay: capture ELISA, Test 1, Cyno 6
Procedure: as §3

[12] = target: T5, human IgE (Human myeloma, azide free, …); assay: BIAcore 3000, antibody immobilised, full length human IgE injected
Procedure: An immobilization binding response of 50-600 RU was obtained using CM5 sensor chips (BIAcore™) and 10 mM sodium acetate, pH 5.0 as immobilization buffer. The reference flow cell was activated (with EDC-NHS) and blocked (with ethanolamine) but no protein was immobilized. […] A regeneration step was included after the dissociation phase; the conditions used for the various antibodies are given in Table 17 below.
All sensorgrams were fitted locally using BIA evaluation software 4.1 (BIAcore™) and Scrubber software version 2.0 (BioLogic Software).

[13] = target: T6, cynomolgus monkey IgE (in cynomolgus …); assay: capture ELISA, Test 1, Cyno 4
Procedure: as §3

| IC25 ng/mL [1] | IC25 ng/mL [2] | A290 nm [3] | A290 nm [4] | A290 nm [5] | A290 nm [6] | IC25 ng/mL [7] | IgE concentration detected [8] | IC25 ng/mL [9] | IgE concentration detected [10] | IgE concentration detected [11] | Kd [12] | koff [12] | kon [12] | IgE concentration detected [13] | Binder |
| --- | --- | --- | --- | --- | --- | --- | --- | --- | --- | --- | --- | --- | --- | --- | --- |
| 39.7 µg/mL | 1.81 µg/mL | 0.04 A290 nm | 0.04 A290 nm | 0.07 A290 nm | 2.57 A290 nm | 6.34 µg/mL | 56 ng/mL | 3.3 µg/mL | 328 ng/mL | 53 ng/mL | 1.32 nM | 3.11e-05 s⁻¹ | 23600 M⁻¹ s⁻¹ | 39 ng/mL | 5.948.1 (recombinant) (antibody, human IgG2, kappa, V domains shown, Human IgG2 kappa; leader omitted; Two batches were tested in some assays; also called recombinant 5.948.1; 5.948.1 - Batch 1 (762.8 µg/mL)) VH: QVQLVQSGAEVKKPGASVKVSCKASGYTFTSYDINWVRQATGQGLEWMGWMDPNSGNTGYAQKFQGRVTMTRNTSISTAYMELSSLRSEDTAVYYCARGHYDSDGYYSFSGMDVWGQGTTVTVSS VL: not shown |
| 10.5 µg/mL | 0.34 µg/mL | 0.05 A290 nm | 0.06 A290 nm | 0.06 A290 nm | 1.05 A290 nm | 2.96 µg/mL | 36 ng/mL |  | 199 ng/mL |  | 0.159 nM | 2.42e-05 s⁻¹ | 151000 M⁻¹ s⁻¹ |  | 5.948.1 Hc-H100Y (antibody, human IgG2, kappa, V domains shown, Human IgG2 kappa; leader omitted; also called 5.948.1 (H100Y); 5.948.1 H100Y) VH: QVQLVQSGAEVKKPGASVKVSCKASGYTFTSYDINWVRQATGQGLEWMGWMDPNSGNTGYAQKFQGRVTMTRNTSISTAYMELSSLRSEDTAVYYCARGYYDSDGYYSFSGMDVWGQGTTVTVSS VL: not shown |
